Reference: paper PMC8034617 (Nucleic Acids Research, 2021)
Ends that are not written are not given here.

B1: HNRNPK-derived peptide P1m (asymmetrically dimethylated) (peptide)
peptide: FPMRGRGGFDRMPPGRGGR
modifications: also: asymmetrically dimethylated, places not given here
B2: biotinylated HNRNPK peptide P1 (peptide)
peptide: FPMRGRGGFDRMPPGRGGR
modifications: also: biotin, position not given here
B3: biotinylated HNRNPK peptide P1m (peptide)
peptide: FPMRGRGGFDRMPPGRGGR
modifications: also: biotinylated, position not given here

Columns and labels:
[1] = target: T1, His-RPS19 wt (human (cDNA from K562), UniProt P39019 1-145); test: thermal shift assay
[2] = target: T1, His-RPS19 wt; test: pull-down

Row | Binder | binding result [1] | binding result [2]
1 | B1 | binds | 
2 | B2 |  | binds
3 | B3 |  | binds
